Assay results as given in patent US20250327097A1, “ORGANISMS PRODUCING LESS CROTONIC ACID” (Global Bioenergies, priority 2021, published 2025).

Test system: 3-methylcrotonic acid
Format: biochemical, Yersinia frederiksenii
Design: key: “+” representing a low increase in activity; “++++” representing a high increase in activity

Molecule | Activity relative to WT
E126K-H141Q-I283T-N285P-N287T-Q290E-S322T-N388M-K394R-C430A-L432F-L434W-S436N-dG462 (protein) MFLKSLREQINLLKRQGDLRIINRPVDSYLEAAAIIRRSTETKAPVPLMTNIKGYPGCSIVGGLAALSSNPEYPLSRVAMSLGLSTTASAQSIVQYLIDGLKKTPYLPVEIDSNSAPCKQNILRGKDASLAHFPIPQVHQQDGNRYVNTWGVFIVESPDGQWCNWSIQRVQYLNDRQMIALVFPSQHISDIWEEWVKIGKPMPYALVQGCEPIVPYIAGLPLLERNVNEAEYIGALYGKGIEVVKCETHDLRVPASSEVVIEGYFAITREGVEGPFGEFAGYTPPETSLEPILSITAISWQDDPIWPVVAEGKPVDEYHTCTGIGDAAAIQNVLLTANLPVSFVWVPLYSACHLMIVSINRHWRQTHPDLTSEQLTKKVGDVIHQTRMSIKLPRIVVLDDDVDPADTESLLWALATRIHPERKRYFYESAIFPWLNCYSEEERHNRKGKRVIIDALLPENHGAISSFDYAYPDDIKQRVLMHWETDFSHD | ++++
I283T-P284D-i284aP-N287P-S322T-N388M-E421V-C430N-L432F-L434W-S436N-H461V-dG462-A463T (protein) MFLKSLREQINLLKRQGDLRIINRPVDSYLEAAAIIRRSTETKAPVPLMTNIKGYPGCSIVGGLAALSSNPEYPLSRVAMSLGLSTTASAQSIVQYLIDGLKKTPYLPVEIDSNSAPCKQNILRGEDASLAHFPIPQVHQHDGNRYVNTWGVFIVESPDGQWCNWSIQRVQYLNDRQMIALVFPSQHISDIWEEWVKIGKPMPYALVQGCEPIVPYIAGLPLLERNVNEAEYIGALYGKGIEVVKCETHDLRVPASSEVVIEGYFAITREGVEGPFGEFAGYTDNEPSLQPILSITAISWQDDPIWPVVAEGKPVDEYHTCTGIGDAAAIQNVLLTANLPVSFVWVPLYSACHLMIVSINRHWRQTHPDLTSEQLTKKVGDVIHQTRMSIKLPKIVVLDDDVDPADTESLLWALATRIHPVRKRYFYESNIFPWLNCYSEEERHNRKGKRVIIDALLPENVGTISSFDYAYPDDIKQRVLMHWETDFSHD | ++++
L223Y-I283T-N285P-N287T-Q290E-S322T-N388M-K394R-C430A-L432F-L434W-S436N-dG462 (protein) MFLKSLREQINLLKRQGDLRIINRPVDSYLEAAAIIRRSTETKAPVPLMTNIKGYPGCSIVGGLAALSSNPEYPLSRVAMSLGLSTTASAQSIVQYLIDGLKKTPYLPVEIDSNSAPCKQNILRGEDASLAHFPIPQVHQHDGNRYVNTWGVFIVESPDGQWCNWSIQRVQYLNDRQMIALVFPSQHISDIWEEWVKIGKPMPYALVQGCEPIVPYIAGLPLYERNVNEAEYIGALYGKGIEVVKCETHDLRVPASSEVVIEGYFAITREGVEGPFGEFAGYTPPETSLEPILSITAISWQDDPIWPVVAEGKPVDEYHTCTGIGDAAAIQNVLLTANLPVSFVWVPLYSACHLMIVSINRHWRQTHPDLTSEQLTKKVGDVIHQTRMSIKLPRIVVLDDDVDPADTESLLWALATRIHPERKRYFYESAIFPWLNCYSEEERHNRKGKRVIIDALLPENHGAISSFDYAYPDDIKQRVLMHWETDFSHD | ++++
I283T-P284D-i284aP-N287P-S322T-N388M-C430N-L432F-L434W-S436N-H461A-dG462-A463T (protein) MFLKSLREQINLLKRQGDLRIINRPVDSYLEAAAIIRRSTETKAPVPLMTNIKGYPGCSIVGGLAALSSNPEYPLSRVAMSLGLSTTASAQSIVQYLIDGLKKTPYLPVEIDSNSAPCKQNILRGEDASLAHFPIPQVHQHDGNRYVNTWGVFIVESPDGQWCNWSIQRVQYLNDRQMIALVFPSQHISDIWEEWVKIGKPMPYALVQGCEPIVPYIAGLPLLERNVNEAEYIGALYGKGIEVVKCETHDLRVPASSEVVIEGYFAITREGVEGPFGEFAGYTDNEPSLQPILSITAISWQDDPIWPVVAEGKPVDEYHTCTGIGDAAAIQNVLLTANLPVSFVWVPLYSACHLMIVSINRHWRQTHPDLTSEQLTKKVGDVIHQTRMSIKLPKIVVLDDDVDPADTESLLWALATRIHPERKRYFYESNIFPWLNCYSEEERHNRKGKRVIIDALLPENAGTISSFDYAYPDDIKQRVLMHWETDFSHD | ++++
V227Y-I283T-N285P-N287T-Q290E-S322T-N388M-K394R-C430A-L432F-L434W-S436N-dG462 (protein) MFLKSLREQINLLKRQGDLRIINRPVDSYLEAAAIIRRSTETKAPVPLMTNIKGYPGCSIVGGLAALSSNPEYPLSRVAMSLGLSTTASAQSIVQYLIDGLKKTPYLPVEIDSNSAPCKQNILRGEDASLAHFPIPQVHQHDGNRYVNTWGVFIVESPDGQWCNWSIQRVQYLNDRQMIALVFPSQHISDIWEEWVKIGKPMPYALVQGCEPIVPYIAGLPLLERNYNEAEYIGALYGKGIEVVKCETHDLRVPASSEVVIEGYFAITREGVEGPFGEFAGYTPPETSLEPILSITAISWQDDPIWPVVAEGKPVDEYHTCTGIGDAAAIQNVLLTANLPVSFVWVPLYSACHLMIVSINRHWRQTHPDLTSEQLTKKVGDVIHQTRMSIKLPRIVVLDDDVDPADTESLLWALATRIHPERKRYFYESAIFPWLNCYSEEERHNRKGKRVIIDALLPENHGAISSFDYAYPDDIKQRVLMHWETDFSHD | ++++
I283T-P284D-i284aP-N287P-S322T-N388M-C430N-L432F-L434W-S436N-H461A-dG462 (protein) MFLKSLREQINLLKRQGDLRIINRPVDSYLEAAAIIRRSTETKAPVPLMTNIKGYPGCSIVGGLAALSSNPEYPLSRVAMSLGLSTTASAQSIVQYLIDGLKKTPYLPVEIDSNSAPCKQNILRGEDASLAHFPIPQVHQHDGNRYVNTWGVFIVESPDGQWCNWSIQRVQYLNDRQMIALVFPSQHISDIWEEWVKIGKPMPYALVQGCEPIVPYIAGLPLLERNVNEAEYIGALYGKGIEVVKCETHDLRVPASSEVVIEGYFAITREGVEGPFGEFAGYTDNEPSLQPILSITAISWQDDPIWPVVAEGKPVDEYHTCTGIGDAAAIQNVLLTANLPVSFVWVPLYSACHLMIVSINRHWRQTHPDLTSEQLTKKVGDVIHQTRMSIKLPKIVVLDDDVDPADTESLLWALATRIHPERKRYFYESNIFPWLNCYSEEERHNRKGKRVIIDALLPENAGAISSFDYAYPDDIKQRVLMHWETDFSHD | ++++
P184S-I283T-N285P-N287T-Q290E-S322T-N388M-K394R-C430A-L432F-L434W-S436N-dG462 (protein) MFLKSLREQINLLKRQGDLRIINRPVDSYLEAAAIIRRSTETKAPVPLMTNIKGYPGCSIVGGLAALSSNPEYPLSRVAMSLGLSTTASAQSIVQYLIDGLKKTPYLPVEIDSNSAPCKQNILRGEDASLAHFPIPQVHQHDGNRYVNTWGVFIVESPDGQWCNWSIQRVQYLNDRQMIALVFSSQHISDIWEEWVKIGKPMPYALVQGCEPIVPYIAGLPLLERNVNEAEYIGALYGKGIEVVKCETHDLRVPASSEVVIEGYFAITREGVEGPFGEFAGYTPPETSLEPILSITAISWQDDPIWPVVAEGKPVDEYHTCTGIGDAAAIQNVLLTANLPVSFVWVPLYSACHLMIVSINRHWRQTHPDLTSEQLTKKVGDVIHQTRMSIKLPRIVVLDDDVDPADTESLLWALATRIHPERKRYFYESAIFPWLNCYSEEERHNRKGKRVIIDALLPENHGAISSFDYAYPDDIKQRVLMHWETDFSHD | ++++
I283T-P284D-i284aP-N287P-S322T-N388M-E421V-R422F-C430N-L432F-L434W-S436N-dG462-A463T (protein) MFLKSLREQINLLKRQGDLRIINRPVDSYLEAAAIIRRSTETKAPVPLMTNIKGYPGCSIVGGLAALSSNPEYPLSRVAMSLGLSTTASAQSIVQYLIDGLKKTPYLPVEIDSNSAPCKQNILRGEDASLAHFPIPQVHQHDGNRYVNTWGVFIVESPDGQWCNWSIQRVQYLNDRQMIALVFPSQHISDIWEEWVKIGKPMPYALVQGCEPIVPYIAGLPLLERNVNEAEYIGALYGKGIEVVKCETHDLRVPASSEVVIEGYFAITREGVEGPFGEFAGYTDNEPSLQPILSITAISWQDDPIWPVVAEGKPVDEYHTCTGIGDAAAIQNVLLTANLPVSFVWVPLYSACHLMIVSINRHWRQTHPDLTSEQLTKKVGDVIHQTRMSIKLPKIVVLDDDVDPADTESLLWALATRIHPVFKRYFYESNIFPWLNCYSEEERHNRKGKRVIIDALLPENHGTISSFDYAYPDDIKQRVLMHWETDFSHD | ++++
I283T-P284D-i284aP-N287P-S322T-N388M-E421V-R422F-C430N-L432F-L434W-S436N-H461T-dG462-A463T (protein) MFLKSLREQINLLKRQGDLRIINRPVDSYLEAAAIIRRSTETKAPVPLMTNIKGYPGCSIVGGLAALSSNPEYPLSRVAMSLGLSTTASAQSIVQYLIDGLKKTPYLPVEIDSNSAPCKQNILRGEDASLAHFPIPQVHQHDGNRYVNTWGVFIVESPDGQWCNWSIQRVQYLNDRQMIALVFPSQHISDIWEEWVKIGKPMPYALVQGCEPIVPYIAGLPLLERNVNEAEYIGALYGKGIEVVKCETHDLRVPASSEVVIEGYFAITREGVEGPFGEFAGYTDNEPSLQPILSITAISWQDDPIWPVVAEGKPVDEYHTCTGIGDAAAIQNVLLTANLPVSFVWVPLYSACHLMIVSINRHWRQTHPDLTSEQLTKKVGDVIHQTRMSIKLPKIVVLDDDVDPADTESLLWALATRIHPVFKRYFYESNIFPWLNCYSEEERHNRKGKRVIIDALLPENTGTISSFDYAYPDDIKQRVLMHWETDFSHD | ++++
I283T-P284D-i284aP-N287P-S322T-N388M-E421V-R422F-C430N-L432F-L434W-S436N-H461T-dG462 (protein) MFLKSLREQINLLKRQGDLRIINRPVDSYLEAAAIIRRSTETKAPVPLMTNIKGYPGCSIVGGLAALSSNPEYPLSRVAMSLGLSTTASAQSIVQYLIDGLKKTPYLPVEIDSNSAPCKQNILRGEDASLAHFPIPQVHQHDGNRYVNTWGVFIVESPDGQWCNWSIQRVQYLNDRQMIALVFPSQHISDIWEEWVKIGKPMPYALVQGCEPIVPYIAGLPLLERNVNEAEYIGALYGKGIEVVKCETHDLRVPASSEVVIEGYFAITREGVEGPFGEFAGYTDNEPSLQPILSITAISWQDDPIWPVVAEGKPVDEYHTCTGIGDAAAIQNVLLTANLPVSFVWVPLYSACHLMIVSINRHWRQTHPDLTSEQLTKKVGDVIHQTRMSIKLPKIVVLDDDVDPADTESLLWALATRIHPVFKRYFYESNIFPWLNCYSEEERHNRKGKRVIIDALLPENTGAISSFDYAYPDDIKQRVLMHWETDFSHD | ++++
